Results reported in IntAct's records for PubMed 17911252.

B1: N-chimaerin (Homo sapiens), P15882-1 (parent)
chain: MALTLFDTDEYRPPVWKSYLYQLQQEAPHPRRITCTCEVENRPKYYGREFHGMISREAADQLLIVAEGSYLIRESQRQPGTYTLALRFGSQTRNFRLYYDGKHFVGEKRFESIHDLVTDGLITLYIETKAAEYIAKMTINPIYEHVGYTTLNREPAYKKHMPVLKETHDERDSTGQDGVSEKRLTSLVRRATLKENEQIPKYEKIHNFKVHTFRGPHWCEYCANFMWGLIAQGVKCADCGLNVHKQCSKMVPNDCKPDLKHVKKVYSCDLTTLVKAHTTKRPMVVDMCIREIESRGLNSEGLYRVSGFSDLIEDVKMAFDRDGEKADISVNMYEDINIITGALKLYFRDLPIPLITYDAYPKFIESAKIMDPDEQLETLHEALKLLPPAHCETLRYLMAHLKRVTLHEKENLMNAENLGIVFGPTLMRSPELDAMAALNDIRYQRLVVELLIKNEDILF

Variants of: B1
Conditions: with epha4_mouse Epha4, Q03137
Sequence of epha4_mouse Epha4, Q03137 (Q03137 whole entry): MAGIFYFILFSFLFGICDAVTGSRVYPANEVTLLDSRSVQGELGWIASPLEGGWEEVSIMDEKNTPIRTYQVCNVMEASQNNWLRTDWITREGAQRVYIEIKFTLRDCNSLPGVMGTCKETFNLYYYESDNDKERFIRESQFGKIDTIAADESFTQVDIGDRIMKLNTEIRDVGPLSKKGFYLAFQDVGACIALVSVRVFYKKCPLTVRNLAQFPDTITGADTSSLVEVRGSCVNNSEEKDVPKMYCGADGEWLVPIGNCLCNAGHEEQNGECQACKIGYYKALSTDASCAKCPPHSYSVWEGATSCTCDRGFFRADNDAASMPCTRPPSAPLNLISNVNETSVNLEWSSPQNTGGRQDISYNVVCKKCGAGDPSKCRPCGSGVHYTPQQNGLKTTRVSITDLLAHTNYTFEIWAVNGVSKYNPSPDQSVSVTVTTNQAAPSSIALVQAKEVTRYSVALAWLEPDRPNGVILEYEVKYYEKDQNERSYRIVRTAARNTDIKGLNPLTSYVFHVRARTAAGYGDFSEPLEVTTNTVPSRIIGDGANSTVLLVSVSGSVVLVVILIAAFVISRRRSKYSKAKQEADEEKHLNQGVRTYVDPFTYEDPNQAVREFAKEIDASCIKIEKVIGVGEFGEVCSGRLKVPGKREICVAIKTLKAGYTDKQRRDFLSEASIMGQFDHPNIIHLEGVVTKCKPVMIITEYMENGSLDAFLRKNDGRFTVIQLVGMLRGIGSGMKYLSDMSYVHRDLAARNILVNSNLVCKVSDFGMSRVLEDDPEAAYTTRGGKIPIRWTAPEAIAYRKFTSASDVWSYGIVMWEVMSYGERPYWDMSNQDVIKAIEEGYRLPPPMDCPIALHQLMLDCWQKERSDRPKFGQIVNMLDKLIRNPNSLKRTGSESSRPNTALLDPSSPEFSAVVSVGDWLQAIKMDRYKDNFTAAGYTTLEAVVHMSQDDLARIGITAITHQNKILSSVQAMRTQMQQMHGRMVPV

| Variant | effect of a mutation on the interaction |
| --- | --- |
| MALTLFDTDEYRPPVWKSYLYQLQQEAPHPRRITCTCEVENRPKYYGREFHGMISLEAADQLLIVAEGSYLIRESQRQPGTYTLALRFGSQTRNFRLYYDGKHFVGEKRFESIHDLVTDGLITLYIETKAAEYIAKMTINPIYEHVGYTTLNREPAYKKHMPVLKETHDERDSTGQDGVSEKRLTSLVRRATLKENEQIPKYEKIHNFKVHTFRGPHWCEYCANFMWGLIAQGVKCADCGLNVHKQCSKMVPNDCKPDLKHVKKVYSCDLTTLVKAHTTKRPMVVDMCIREIESRGLNSEGLYRVSGFSDLIEDVKMAFDRDGEKADISVNMYEDINIITGALKLYFRDLPIPLITYDAYPKFIESAKIMDPDEQLETLHEALKLLPPAHCETLRYLMAHLKRVTLHEKENLMNAENLGIVFGPTLMRSPELDAMAALNDIRYQRLVVELLIKNEDILF [R56L] | decreasing interaction strength |
